Experiment: label from the status in PepcDB records

Sequence | protein production
MSKELLGVSAVGLMVLGEFCAIYSEVVVARLAHSGNTSGAELALPVLIMCLGGICLLAAYWLGYVAVGDIWIITVVSVTSLLLLEPLVIWALFQQAPGRGALIGFCLGALGMLSAVFL | failed
MATKRANGEGSIGKYKDGWRSRIMIGYNEDGKPLRKEFYGKTQKEVKDKLDAYKKQYYLSSDISDDKITLEHWFYNWLFEYRIKDLKPKSFERYESIYRNYIKDTDLGNVKLKYLRVSHIQKYYNRLLDSNKSIPTIRQINTKLKTCLSEAEKQGLIQRNYCTMVNIPVEKKENKLEILTLEQQKSFIKAIDGHKLEVLFLLALGTGLRLGELLGLKWFDIDFKKSNLTVKRTLQRTYFIDKTGNRELKVLEQGPKTSNSYRTVPIPKDVLNKLKEHKVNQNTDILKAGELYINNNYVFCNELGIPIDDKRPLRNLKSILNSLNIEPIKFHGLRKTYATRLFENDVPPKTVQVLMGHYDISITLNIYTQVMEDKKVEAVEKLDKIFSL | failed
MRLSRIKLPKINSLYGRIFAIFWFTMLLVLIAVLSLPHLDPRKARDIPDEHYQRIIETRDAIQNKYSKETDLGRILFRVEGNRAGKHDPRPRVFFSDYNGNVLTTDKRSNFQLRAMQNFVTSIEDYNKPKQRLYGRYMIAGPVPIVLADSELLMYVGFKWNEPPPLLLRLFDHPFQLLLAVMLVSTPLLLWLAWALSQPARRLEAAAQRVAKGEFVIDPNLEKGTAEFRQAGSSFNQMVEAVNQMISGQQRLLSDISHELRSPLTRLRMASALATRKQGDSPELVRIDTEAQRLEQMISELLELSRMQVNSHMTRETQPIESLWEEIIKDAQFEAEQMGKTLRYSEIPERHISGNPKLLMSAVENIIRNAIYYGKDEVQIDIQDKTDTLTITVDDNGDGVPDEELEAIFRPFYRVSTARDRHSGGTGLGLTITESAIRQHSGTIVASRSPLGGLRVSITLPLVKVGK | failed
YVFTVELERGPSGLGMGLIDGMHTHLGAPGLYIQTLLPGSPAAADGRLSLGDRILEVNGSSLLGLGYLRAVDLIRHGGKKMRFLVAKSDVETAKKIH | not failed
MATPKLEAYRKKRDFSKTPEPVGNLTAGGNRFVVHKHHATADHYDLRLEVDGVLKSWAVPKGPSLNPADKRLAVETEDHPLDYIDFEGVIPEGEYGGGPMIVWDKGVWAPMGDVDDDLRKGAFKFRLAGEKLNGGWMLARLKRRPGEEDQRNWLLFKERDPAADTSIDILAARPESVKSGRRIEELVEKPKAPPKPVKLNPGALAGAVKAAQPERIEPQLATQTILPPEAEKDSKKPERWLHEIKFDGYRTMAHVADGKVRLVTRGGLDWTKRYGDLPEVFRRLPCRDVIIDGEIVVLDETGVSRFALLQDALSTGAGNSLVFYAFDLLHLNGWNLFDVPLEKRKALLKQLLAGQVSSRSAIQFSDHVLGEGRALYDRASEMGLEGIVSKRISAPYRSGRSKTWTKTKALKAEDFVIVGYTVSEAAEGIASLALGEWADGELEYRGKVGTGFDAQMLKELLARLEPLRAGAAKLEGAPREIIWVRPLLRAHIHYGNRTTDNVLRHAVFKGLRDVELSTPVSMSRKRLISDADLAGISITNPTRRLFGKSGPTKLDLAVYYAMIGDFMLPHILGRPVSLVRCPTGRTQDCFFQRHPFTGMPPSVATFQATNSEGEAKTYLSVEDARGYLALAQFGVVEFHNWGTTRKLLGKPDRVVFDLDPGEGIAWREVVEAAIHIKAELEALALVPFVKTSGGRGVHVVVPVVPKLDWKKFHQATSALATRLAATAPATFTTTMGKDNRIRRIFIDFHRNARSHTWAAPYSLRARTNLPASTPLSWADLETIDAPADLNYSSLPGLLATSGDPWADIDDFARDLPIL | failed
MLVGSQLIEIVIDSLRYENLKEILDEMFRDEVQKLKYFLEDVKEEDEELYNKIVDALKLFKENYEIEDIKIPKKIRVFLVKNNILFLNPQKGSLKPQSYLVWNAIKMLL | failed
MDRMYEQNQMPHNNEAEQSVLGSIIIDPELINTTQEVLLPESFYRGAHQHIFRAMMHLNEDNKEIDVVTLMDQLSTEGTLNEAGGPQYLAELSTNVPTTRNVQYYTDIVSKHALKRRLIQTADSIANDGYNDELELDAILSDAERRILELSSSRESDGFKDIRDVLGQVYETAEELDQNSGQTPGIPTGYRDLDQMTAGFNRNDLIILAARPSVGKTAFALNIAQKVATHEDMYTVGIFSLEMGADQLATRMICSSGNVDSNRLRTGTMTEEDWSRFTIAVGKLSRTKIFIDDTPGIRINDLRSKCRRLKQEHGLDMIVIDYLQLIQGSGSRASDNRQQEVSEISRTLKALARELECPVIALSQLSRGVEQRQDKRPMMSDIRESGSIEQDADIVAFLYRDDYYNRGGDEDDDDDGGFEPQTNDENGEIEIIIAKQRNGPTGTVKLHFMKQYNKFTDIDYAHADMM | failed
MICKKLIQTILLGFAMCFYLLLGAGLNPTLAATLTQVESISQPRMQTLSEPRNLESGVDSFLTSIPAGYYTIATVEELKSLLKKSQPMLVDVREASEYRAGHIPNAINIPLRTLSQNLNQIPRTRPVVLYCSSGYRSAMGVMTLHLLGYENVQGFPPSFAGWKNAKEAMTYGRSKTIAS | failed
MSLQLDEYLRQLAPSMTQWRRDFHLHAESGWLEFRTASKVADILDGLGYQLALGRDVIDADSRMGLPDEETLARAFERAREQGAPERWLPAFEGGFAGVVATLDTGRPGPTLAFRVDMDALDLNEQHDDSHRPHRDHFASCNAGMMHACGHDGHTAIGLGLAHVLKQYAAQLNGVIKLIFQPAEEGTRGARAMVAAGVVDDVDYFTAIHIGTGVPAGTVVCGGDNFMATTKFDVQFSGVAAHAGGKPEDGRNALLAAAQAALGLHAIPPHSAGASRVNVGVMQAGTGRNVVPSSALLKVETRGESEAINQYVFERAQHVVAGAAAMYEARYELRMMGAATASAPSPAWVDYLREQAARVPGVQQAVDRIAAPAGSEDATLMMARVQARGGLASYMIFGTELSAGHHNEKFDFDESVMAVAVETLARVALNFPWQRGVEGHHHHHH | not failed
MLFSSIVFLFYFFPAVLLLYYICSFSRRLQNVVLLFASLVFYAWGDFSFLGIMIVSIIINYILGLLVGKFREKKLLAKFFIFVTCAYNLGMLFVFKYLGFVVKNIDKVGNYKLSIPNIALPIGISYFTFKAISYVVDVYKNKVEAEKNPLNIGLYIAFFPEVISGPISRYVKVGEQIKNREHSWQKFSVGACRFITGLGKKVLISNSVSIIADKVFTMNTNGPVPVTLAWLGSIAYTIQIFFDFSGYSDMVIGLGLMFGFKIDENFNYPYISKSITEFWRRWHISLSSWFRDYIYIPLGGSRVDNKDKLIRNLFIVWVSTGVWHGAEWTFIMWGFLNFVFIALEKVFSFDDLKINPVIKHIYALFIINLGWVLFRSENLIQAGKYVACMFGLRGNAFWSNYTFMFVKENAVIFIAAVILSMPIAKKVNKLVYDKVPGYKILNGVYPIAVLGVFFVCISYLIKGTYNPFIYLKF | failed
MYANKVKKIAAVHDLSGMGRVSLTVVIPILSSMGFQVCPLPTAVLSNHTQYPGFSFLDLTDEMPKIIAEWKKLEVQFDAIYTGYLGSPRQIQIVSDFIKDFRQPDSLIVADPVLGDNGRLYTNFDMEMVKEMRHLITKADVITPNLTELFYLLDEPYKADSTDEELKEYLRLLSDKGPQVVIITSVPVHDEPHKTSVYAYNRQGNRYWKVTCPYLPAHYPGTGDTFTSVITGSLMQGDSLPMALDRATQFILQGIRATFGYEYDNREGILLEKVLHNLDMPIQMASYELI | not failed
MIKHESSQPLRVAVAQCRIDWEDKHANLRRMERLAEETAGMADVLFFPEMMTTGFSMNVQALAEPFEEGETIMSLKRVTARHGLALSATMAVRENGKFYNRAYFVTPEGEVFHQDKRHLFRVGGEHEVMTPAQERRIFNY | failed
MTPEIAIGLVTALGLGALVGLERQWRQRSSGMATHAMVALGAASFSILPLLLDNEVSVTRMAAQVVSGIGFLGAGVIMRDGLSVRGLSTAASIWSTGAIGVLAGSGFILAACMTTALIVIANLFLPALGRVVDRHTSGEAEQERFYQISVSCEARNEALVRMQLLQRMGDNRLNLQSLESHALKGSGNVEVNAVVFTLHKEDSLVEQMVGELCLAPQVTAASWVMNPAAE | failed
MSVAGLKKQFHKASQLFSEKISGAEGTKLDDEFLDMERKIDVTNKVVAEILSKTTEYLQPNPAYRAKLGMLNTVSKIRGQVKTTGYPQTEGLLGDCMLKYGKELGEDSTFGNALIEVGESMKLMAEVKDSLDINVKQTFIDPLQLLQDKDLKEIGHHLKKLEGRRLDYDYKKKRVGKIPDEEVRQAVEKFEESKELAERSMFNFLENDVEQVSQLAVFIEAALDYHRQSTEILQELQSKLQMRISAASSVPRREYKPRPVKRSSSELNGVSTTSVVKTTGSNIPMDQPCCRGLYDFEPENQGELGFKEGDIITLTNQIDENWYEGMIHGESGFFPINYVEVIVPLPQ | failed
MPTLEMPVAAVLDSTVGSSEALPDFTSDRYKDAYSRINAIVIEGEQEAHDNYIAIGTLLPDHVEELKRLAKMEMRHKKGFTACGKNLGVEADMDFAREFFAPLRDNFQTALGQGKTPTCLLIQALLIEAFAISAYHTYIPVSDPFARKITEGVVKDEYTHLNYGEAWLKANLESCREELLEANRENLPLIRRMLDQVAGDAAVLQMDKEDLIEDFLIAYQESLTEIGFNTREITRMAAAALVS | not failed
MDVSNKDAKRTDTIILANFDPITKEAKLISIPRDTRVKIGGKSQKINAAYPIGGEKLVKQLVGNILGVKVDYVVKVDYEGFRGIIDAIGGIDMYIEQDMNYDDPGQDLHIHFNKGETVHLDGKKAEEFFRWRKNNDGTGLVNGDVDRIKNQQKFINAVIDKVLSVSTITKIDSIAEILNKNIETNIPLDVTVAYGLKGLETDKNNIKMMTLPGEGKYVGNVSYYIPDEKATKELRSQLNSSNLSGRKNVIPSAARGDLSIKVLNCTKINGLAANVQKQLNENGYDKVDLEHHHHHH | not failed
DDFEDSLEYLEPLDHDAYIVRLNFTGENTTEPIISYMTKTHNIDVNILEADIKNTKNGSLGFLVIHIPHISEEHFKQFKHNLHEQHVNVEVLKHG | not failed
ECTIKNNIENILRNSYINVGYEEVRSPTLEFYDVYNLENQPISQEKMYKLFDNTGRILVLRPDMTTPIARICATKLKNRVYPLKLSYTGNIYRMNKALNGKISEITQSGIEILGFSSLKADAEVIITAIKAILKTGLKNFKIEIGQVEFFKSIISDTALKEQDTEKLRNFIENKNFSKVEEFILRNSDLIGETSSKVLMNLPNLFGGKEVIEKAEQLTSNKQAIEALKKVRDLYDIVKRAGFGEYILIDLGMVQHINYYTGLIFRGYAHGIGDDLLSGGRYDKLLGQFGYDIPATGLAINVDNLVA | failed
MKALSPVRGCYEAVCCLSERSLAIARGRGKGPAAEEPLSLLDDMNHCYSRLRELVPGVPRGTQLSQVEILQRVIDYILDLQVVLAEPAPGPPDGPHLPIQTAELAPELVISNDKRSFCH | failed
MSLASYFIGVDVGTGSARAGVFDLQGRMVGQASREITMFKPKADFVEQSSENIWQAVCNAVRDAVNQADINPIQVKGLGFDATCSLVVLDKEGNPLTVSPSGRNEQNVIVWMDHRAITQAERINATKHPVLEFVGGVISPEMQTPKLLWLKQHMPNTWSNVGHLFDLPDFLTWRATKDETRSLCSTVCKWTYLGHEDRWDPSYFKLVGLADLLDNNAAKIGATVKPMGAPLGHGLSQRAASEMGLIPGTAVSVSIIDAHAGTIGILGASGVTGENANFDRRIALIGGTSTAHMAMSRSAHFISGIWGPYYSAILPEYWLNEGGQSATGALIDHIIQSHPCYPALLEQAKNKGETIYEALNYILRQMAGEPENIAFLTNDIHMLPYFHGNRSPRANPNLTGIITGLKLSTTPEDMALRYLATIQALALGTRHIIETMNQNGYNIDTMMASGGGTKNPIFVQEHANATGCAMLLPEESEAMLLGSAMMGTVAAGVFESLPEAMAAMSRIGKTVTPQTNKIKAYYDRKYRVFHQMYHDHMRYQALMQEGEGHHHHHH | not failed
MCNAKDIYTAGWALVVMAGLVSLAIQVYLGYFRLDDMVKHLSRCRVIAIRMPLLGKDPLSRFFMLLCIGALFAMPHLFLRNGGLNVKDYRKFPLGLKWLINLFQFAALVAVIAFLVLWWVSRHL | failed
